The labels stand for the following.
B1: COVA1-07 (antibody, V domains shown)
VH: QVQLVESGAEVKKPGSSVKVSCKASGGTLSSYAITWVRQAPGQGLEWVGGIIPIFGTANYAQKFQGRVTITADESTSTAYMELSSLRSEDTAVYYCARVGAYDSSGYSNDYWGQGTLVTVSS
VL: DIQLTQSPATLSLSPGERATLSCRASQSVSSYLAWYQQKPGQAPRLLIYDASNRATGIPARFSGSGSGTDFTLTISSLEPEDFAVYYCQQRSNWPPRVTFGGGTKVEIK
notes: copies: 2 + 2
B2: COVA2-18 (antibody, V domains shown)
VH: EVQLVQSGAEVKKPGSSVKVSCKASGGTFSSYAISWVRQAPGQGLEWMGGIIPIFGTTNYAQKFQGRVTITTDESTSTAYMELSSLRSEDTAVYYCARVYSYDSSGYYLEYWGQGTRVTVSS
VL: B1 VL with D1E, Q3V, R97S, V98I, G102Q, K105R, V106L
notes: copies: 2 + 2
B3: COVA2-14 (antibody, V domains shown)
VH: B2 VH with E1Q, S35I, T58A, Y100R, S101Y, L109E, E110D, R117L
VL: B1 VL with D1E, Q3V, K39E, R97M, V98Y, G102Q
notes: copies: 2 + 2

Residue numbers refer to the chain shown, from its start.

The first assay deals with SARS-CoV S, full-length, on the cell surface (SARS-CoV, strain , UniProt P59594). The experiment in a line: flow cytometry on cells. Particulars: one partner purified. (A flow cytometer gives signals particle by particle.)
Turning to B1, the binding result is recorded as “binds”.

B2: the binding result is given as “binds”.

Turning to B3, the binding result is given as “binds”.

Another assay concerns the target bat CoV SHC014 S, full-length, on the cell surface (Bat SARS-like coronavirus RsSHC014, UniProt U5WLK5). The experiment in a line: flow cytometry on cells. Particulars: one partner purified.
For the molecule B1, the binding result was “binds”.

With B2, the binding result is listed as “binds”.

B3: the binding result is “binds”.

The next assay has as its target HCoV-NL63 S, full-length, on the cell surface (HCoV-NL63, strain , UniProt Q6Q1S2). The experiment in a line: flow cytometry on cells. The conditions noted are these: one partner purified.
With B1, the binding result was “no binding (tested: 50 μg/mL)”.

Take B2: the binding result is “no binding (tested: 50 μg/mL)”.

On to B3, for which the binding result is “no binding (tested: 50 μg/mL)”.

A further assay deals with HCoV-OC43 S, full-length, on the cell surface (HCoV-OC43, strain , UniProt P36334). The experiment in a line: flow cytometry on cells. The conditions noted are these: one partner purified.
As for B1, the binding result is on record as “no binding (tested: 50 μg/mL)”.

B2: the binding result is reported as “no binding (tested: 50 μg/mL)”.

Turning to B3, the binding result was “no binding (tested: 50 μg/mL)”.

The target of a further assay is HCoV-HKU1 S, full-length, on the cell surface (HCoV-HKU1, isolate  (entry: …, UniProt Q5MQD0)). The experiment in a line: flow cytometry on cells. Particulars: one partner purified.
Turning to B1, the binding result was “no binding (tested: 50 μg/mL)”.

Consider B2, for which the binding result is reported as “no binding (tested: 50 μg/mL)”.

Take B3: the binding result is on record as “no binding (tested: 50 μg/mL)”.

The target of another assay is HCoV-229E S, full-length, on the cell surface (HCoV-229E, strain , UniProt P15423). The experiment in a line: flow cytometry on cells. The conditions noted are these: one partner purified.
Regarding B1, the binding result is recorded as “no binding (tested: 50 μg/mL)”.

Turning to B2, the binding result is reported as “no binding (tested: 50 μg/mL)”.

For the molecule B3, the binding result is “no binding (tested: 50 μg/mL)”.

The next assay addresses MERS-CoV S, full-length, on the cell surface (MERS-CoV, strain , UniProt K9N5Q8). The experiment in a line: flow cytometry on cells. The conditions noted are these: one partner purified.
For B1, the binding result is on record as “no binding (tested: 50 μg/mL)”.

B2: the binding result is listed as “no binding (tested: 50 μg/mL)”.

Turning to B3, the binding result was “no binding (tested: 50 μg/mL)”.

The target in another assay is T1, SARS-CoV-2 S, full-length wild type, expressed on the cell surface (SARS-CoV-2, labelled B.1 in Fig. S6A, UniProt P0DTC2).
T1 construct: source: HEK293T, transfected, on the cell surface
The experiment in a line: flow cytometry on cells. The conditions noted are these: one partner purified.
Consider B1, for which the binding result was “binds”.

For the molecule B2, the binding result is “binds”.

Consider B3, for which the binding result is listed as “binds”.

A further assay deals with SARS-CoV-2 soluble S2, his-tagged (SARS-CoV-2, ancestral (Wuhan-Hu-1), UniProt P0DTC2). The experiment in a line: ELISA; COVA MAbs on SARS-CoV-2 S and on soluble S2 (Fig. S5A); format not told. Particulars: both partners purified. In general terms: An ELISA detects its analyte on a solid surface through an enzyme-linked reagent.
As for B1, the binding result is on record as “binds”.

Regarding B2, the binding result is recorded as “binds”.

For the molecule B3, the binding result is given as “binds”.

The record behind these values is publication PMC9352689 (Nature Communications, 2022).
